Laboratory results as given in article doi:10.1101/2024.05.08.592654.

Molecular target: GFP-PNUTS^W726A-HA (non-PP1 binding mutant) (Drosophila)
Test: affinity purification with mass spectrometry

In the case of “PP1-87B (from UniProt P12982 1-302) (enzyme)”, the fold more abundant with PNUTS^WT than with PNUTS^W726A was 12 fold.
